Assay results from KR20230087219A (dated 2023).
Positions count from the first letter of the chain named.

B1: 54G10 (antibody, V domains shown)
VH: EVTLKVCGPGILQPSQTLSLTCSFSGFSLSTSGMGVGWIRQPSGKGLEWLAHIWWDDVKRYNPALKSRLTISKDTSSSQVFLKIASVDTADTATYYCARYYRYDVRWGQGTLVTVSA
VL: DIVMTQTPKFLLVSAGDRVTITCKASQSVSNDVAWYQQKPGQSPTLLIYSASNRYTGVPDRFTGSGYGTDFTFTISTVQAEDLAVYFCQQDYSSPLTFGAGTKLELK
notes: also called monoclonal antibody 54G10
B2: 79C12 (antibody, V domains shown)
VH: EVKLEESGGGLVQPGGSMKLSCVASGFTFSDYWMNWVRQSPEKGLEWVAEIRLKSNNYATHYAESVKGRFTISRDDSKSSVYLQMNNLRAEDTGIYYCTRAAMDYWGQGTSVTVSS
VL: not shown
notes: also called monoclonal antibody 79C12
B3: 54G6 (antibody, V domains shown)
VH: B2 VH with K3Q, L4G, E5V, V23A, A49G, V81I, Y82H, A101Y, S111T
VL: GIVMTQSPSSLAVSPGEKVTMSCKSSQSLLNSRTRKNHLAWYQQKPGQSPKLLIYWASTKDSGVPDRFTGSGSGTDFTLTISSVQAEDLAVYYCKQSYNLFTFGSGTKLEIK
notes: also called monoclonal antibody 54G6

molecular target: T1, SARS-CoV nucleocapsid protein (Sino Biological Cat. No. 40143-V08B) (SARS-CoV, UniProt P59595 1-422); test: indirect LFIA, NP fixed on nitrocellulose, hybridoma culture medium
T1 construct: also called SARS-CoV NP

Binder	binding result
B1	no binding
B2	no binding
B3	no binding

molecular target: T2, MERS-CoV nucleocapsid protein (Sino Biological Cat. No. 40068V08B) (MERS-CoV, UniProt K9N4V7 1-411); test: as above
T2 construct: also called MERS-CoV NP; MERS NP

Binder	binding result
B1	no binding
B2	no binding
B3	no binding
